Patent US20140105931A1
Where “and” joins values, the source holds several entries; their conditions need not be identical. Equal values may be shown once.

What was measured:
[1] = target: GST-human CD81-LEL (human) (UniProt P60033); experiment: ELISA, plate coated with GST-CD81-LEL, 30-fold concentrated HCVpp, detection with 2C1 mAb, GST background subtracted, relative to wt (Cp7) HCVpp
[2] = target: GST-human CD81-LEL (human) (UniProt P60033); experiment: ELISA, plate coated with GST-hCD81-LEL, eE2 detected with anti-human-Fc
[3] = target: human CD81 (co-receptor on Huh-7.5 cells) (human) (UniProt P60033); experiment: cell-based or functional assay

| Substance | blocking of HCVcc (Cp7) infectivity of Huh-7.5 cells [3] | further results |
| --- | --- | --- |
| HCVpp carrying E2 C6A (from UniProt P26660 384-750; P26660 192-383) |  | percentage of CD81 binding relative to the wild type [1]: 14.2% |
| eE2-C6A (Fc-tagged, cell supernatant) (from UniProt P26660 384-664) (Fc fusion) |  | binding capacity relative to wild type eE2 [2]: < 20% |
| purified eE2 (Fc tag removed) (from UniProt P26660 384-664) | 60% and 70% |  |
| purified eE2-C6A (Fc tag removed) (from UniProt P26660 384-664) | 25% |  |
| purified eE2-C17S (from UniProt P26660 384-664) | 60% and 70% |  |
